Results taken from patent publication US20180305450A1 (AstraZeneca / MedImmune, published 2018).
Substitutions are numbered along the chain they refer to.

B1: PaB670010 scFv (scFv, V domains shown)
VH: EVQLLESGGGLVQPGGSLRLSCAASGFTFSSYAMNWVRQAPGKGLEWVSTISYSGSLIHYADSVKGRFTISRDNSKNTLYLQMNSLRAEDTAVYYCARINNDPMDVWGQGTLVTVSS
VL: SIELTQPPSVSVSPGQTASITCSGDNLGKKYVQWYQQKPGQSPVLVIYDDSNRPSGIPERFSGSNSGNTATLTISGTQAMDEADYYCQTWDGNPTTGETNVFGGGTKLTVL
notes: purified scFv; also called ZZ1DRB-B08
B2: PaB670020 scFv (scFv, V domains shown)
VH: B1 VH with H59S, N101H
VL: B1 VL
notes: purified scFv; also called ZZ1IGD-D05
B3: PaB670034 scFv (scFv, V domains shown)
VH: B1 VH with H59S
VL: B1 VL with T96H
notes: purified scFv; also called ZZ1IGF-B11
B4: PaB670045 scFv (scFv, V domains shown)
VH: B1 VH with H59S, N100H, N101H
VL: B1 VL
notes: purified scFv; also called ZZ1KX3-F01
B5: PaB670048 scFv (scFv, V domains shown)
VH: B1 VH with H59S, N100H, N101H, V106H
VL: B1 VL
notes: purified scFv; also called ZZ1KX4-E11
B6: PaB670064 scFv (scFv, V domains shown)
VH: B1 VH with H59S
VL: B1 VL with Q88H, D91H, G92H, T95H, V101H
notes: purified scFv; also called ZZ1KX6-B09
B7: PaB670066 scFv (scFv, V domains shown)
VH: B1 VH with H59S
VL: B1 VL with Q88H, T89H, D91H, P94H, T95H, V101H
notes: purified scFv; also called ZZ1KX6-D05
B8: PaB670067 scFv (scFv, V domains shown)
VH: B1 VH with H59S
VL: B1 VL with Q88H, D91H, G92H, N93H, T96H, T99H
notes: purified scFv; also called ZZ1KXE-A05
B9: PaB670068 scFv (scFv, V domains shown)
VH: B1 VH with H59S
VL: B1 VL with N93H, P94H, T96H, T99H, N100H
notes: purified scFv; also called ZZ1KXE-B01
B10: PaB670070 scFv (scFv, V domains shown)
VH: B1 VH with H59S
VL: B1 VL with G92H, P94H, T95H, E98H
notes: purified scFv; also called ZZ1KXE-D06
B11: PaB670071 scFv (scFv, V domains shown)
VH: B1 VH with H59S
VL: B1 VL with Q88H, D91H, G92H, N93H, P94H, T95H, T99H, V101H
notes: purified scFv; also called ZZ1L3F-A02
B12: PaB670073 scFv (scFv, V domains shown)
VH: B1 VH with H59S
VL: B1 VL with T89H, D91H, N93H, T95H, T96H, T99H
notes: purified scFv; also called ZZ1L3F-H03
B13: PaB670075 scFv (scFv, V domains shown)
VH: B1 VH with H59S
VL: B1 VL with T89H, P94H, T95H, T96H, V101H
notes: purified scFv; also called ZZ1NHH-A05
B14: PaB670076 scFv (scFv, V domains shown)
VH: B1 VH with H59S
VL: B1 VL with Q88H, G92H, N93H, P94H, T99H
notes: purified scFv; also called ZZ1NHH-F09
B15: PaB670077 scFv (scFv, V domains shown)
VH: B1 VH with H59S
VL: B1 VL with Q88H, T89H, D91H, N93H, P94H, V101H
notes: purified scFv; also called ZZ1OZJ-C11
B16: PaB670078 scFv (scFv, V domains shown)
VH: B1 VH with H59S
VL: B1 VL with Q88H, T89H, D91H, N93H, T95H, T99H
notes: purified scFv; also called ZZ1OZJ-G03
B17: PaB670079 scFv (scFv, V domains shown)
VH: B1 VH with H59S
VL: B1 VL with T89H, N93H, P94H, V101H
notes: purified scFv; also called ZZ1OZJ-G05
B18: PaB670080 scFv (scFv, V domains shown)
VH: B1 VH with H59S
VL: B1 VL with N93H, P94H, T95H, V101H
notes: purified scFv
B19: PaB670081 scFv (scFv, V domains shown)
VH: B1 VH with Y53H, S56H, L57H, H59S, Y60H, A61H, V64H, K65H
VL: B1 VL
notes: purified scFv; also called ZZ1OZA-C01
B20: PaB670082 scFv (scFv, V domains shown)
VH: B1 VH with Y53H, G55H, H59S, D62H, K65H
VL: B1 VL
notes: purified scFv; also called ZZ1OZA-D02
B21: PaB670083 scFv (scFv, V domains shown)
VH: B1 VH with S52H, Y53H, S56H, I58H, H59S, Y60H, S63H
VL: B1 VL
notes: purified scFv; also called ZZ1OZB-H05
B22: PaB670084 scFv (scFv, V domains shown)
VH: B1 VH with Y53H, S56H, Y60H, V64H
VL: B1 VL
notes: purified scFv; also called ZZ1PXA-A05
B23: PaB670085 scFv (scFv, V domains shown)
VH: B1 VH with S54H, L57H, H59S, A61H, D62H, V64H
VL: B1 VL
notes: purified scFv; also called ZZ1ODR-A02
B24: PaB670087 scFv (scFv, V domains shown)
VH: B1 VH with S54H, L57H, H59S, S63H, V64H, G66H
VL: B1 VL
notes: purified scFv; also called ZZ1ODR-B05
B25: PaB670088 scFv (scFv, V domains shown)
VH: B1 VH with S56H, S63H, V64H, K65H
VL: B1 VL
notes: purified scFv; also called ZZ1ODR-B11
B26: PaB670089 scFv (scFv, V domains shown)
VH: B1 VH with S54H, L57H, H59S, Y60H, S63H, K65H
VL: B1 VL
notes: purified scFv; also called ZZ1ODR-C05
B27: PaB670090 scFv (scFv, V domains shown)
VH: B1 VH with S54H, S56H, L57H, H59S, Y60H, S63H, G66H
VL: B1 VL
notes: purified scFv; also called ZZ1ODR-F02

Each binder was assayed against T1, recombinant biotinylated human PAR2 extracellular domain (residues 1-75), N-terminal AviTag, C-terminal Flag … (human, UniProt P55085 26-75, biotin on the AviTag (enzymatic biotinylation)) (assay: HTRF competition with Par0067 IgG, scFv).
T1 construct: also called Bio-human-PAR2 ECD; human PAR2 ECD; not shown: N-terminal AviTag (Avidity LLC); C-terminal Flag and poly Histidine tags
Protocol: (§1) 5 μl/well of the appropriate pH 4.44 nM Par0067 IgG solution was added to all wells of the relevant assay plate (pH 7.4 and pH 6.0).
(§2) Test scFv Preparation/Addition: [0172] a) For parallel single point HTS of crude un-purified bacterial lysate scFv samples at both pH 7.4 and pH 6.0 samples were first pre-diluted to 40% of their neat concentration using either pH 7.4 or pH 6.0 assay buffer as appropriate. Subsequently 5 μl of 40% pre-diluted sample was then transferred into the appropriate assay (pH 7.4 or pH 6.0) in order to give a final assay sample concentration of 10.0% (in the 20 μl final assay volume). The parent Par0067 scFv was included in all HTS experiments as a control as were specific pH dependent antibodies as those became available (for benchmarking). […] Duplicate 11 point 1:3 serial dilutions then were prepared on 384 well polypropylene Greiner plates in each of the two assay buffers (pH 7.4 & 6.0). 5 μl per well of each serial dilution was transferred from the relevant pH scFv dilution plate to the corresponding assay plate (pH 7.4 and pH 6.0). 5 μl of the appropriate pH assay buffer was added to the total and non-specific wells. The parent Par0067 purified scFv was included in all multipoint dose response IC₅₀ experiments as a control as were specific pH dependent purified scFv as those became available (for benchmarking).
(§3) For multipoint dose response curves % Specific Binding values were plotted versus test purified antibody concentration (scFv or IgG). IC₅₀ values were determined via a sigmoidal dose response inhibition variable slope curve fit (4 parameter logistic equation) using Graphpad Prism Software.

T1 sequence (P55085 26-75): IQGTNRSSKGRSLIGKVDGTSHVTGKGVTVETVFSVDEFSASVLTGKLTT

Binder	Fold IC50 (pH 6.0 v pH 7.4) [fold]	Fold IC50 pH 7.4 (Variant v Par0067) [fold]
B1	2.7	4.7
B2	3.3	1.7
B3	2.5	1.7
B4	7.4	3
B5	9.6	4.4
B6	4.3	20.3
B7	9.3	15.8
B8	7.9	4.4
B9	5.8	23.6
B10	4.5	18.3
B11	4.2	30.7
B12	5.9	21.8
B13	5.9	30.8
B14	6.3	14
B15	11.2	16.8
B16	9.6	10.1
B17	11.1	13.4
B18	9.5	5
B19	5.1	15.6
B20	3.1	7.7
B21	3.4	13.7
B22	5.2	16.5
B23	3.2	14.6
B24	3.2	12.4
B25	3.8	9
B26	4.5	9.1
B27	3.8	6.8

These binders were tested against T1, recombinant biotinylated human PAR2 … (assay: HTRF competition with Par0067 IgG, pH 6.0, scFv).
Protocol: as §1, §2, §3

Binder	IC50 [nM]
B1	41.8
B2	18.5
B3	14.2
B4	72.5
B5	139
B6	290
B7	487
B8	113
B9	448
B10	270
B11	425
B12	428
B13	603
B14	292
B15	620
B16	319
B17	490
B18	158
B19	260
B20	77.9
B21	152
B22	283
B23	155
B24	131
B25	115
B26	134
B27	85.5

What follows are binders tested against T1, recombinant biotinylated human PAR2 … (assay: HTRF competition with Par0067 IgG, pH 7.4, scFv).
Protocol: as §1, §2, §3

Binder	IC50 [nM]
B1	15.4
B2	5.6
B3	5.6
B4	9.8
B5	14.5
B6	67.1
B7	52.2
B8	14.4
B9	77.8
B10	60.4
B11	101
B12	72.1
B13	102
B14	46.2
B15	55.4
B16	33.3
B17	44.2
B18	16.6
B19	51.4
B20	25.4
B21	45.2
B22	54.5
B23	48.1
B24	40.9
B25	29.8
B26	29.9
B27	22.6
